Assay results taken from patent US20220160699, “MODULATORS OF TDP-43” (Alteron Therapeutics, Inc., published 2022).

Biological target: TDP-43 (TARDBP) (UniProt Q13148 Q13148:1-414)
Assay: pulldown; streptavidin bead pulldown and anti-TDP-43 Western; 20 mM HEPES pH 7.5, 0.3% CHAPS, 150 mM NaCl, on ice/4 C; binding blocked by 30 uM ALT-59, and complex displaced by ALT-59
Settings: tags: N-terminal His-Sumo, expressed in E. coli Rosetta (DE3) from pSumo/TDP43; label: 3' biotin
Procedure: Additional experiments were performed to confirm the direct binding of ALT-59 to TDP-43. One microgram of purified His-Sumo-TDP43 was incubated with 1 μg TG₁₂-biotin ([…]-biotin (SEQ ID NO: 1)) in binding buffer containing 20 mM HEPES, pH 7.5, 0.3% CHAPS, 150 mM NaCl, (Sigma-Aldrich), and protease inhibitor cocktail (Roche) for 4 hours on ice in the presence of carrier (50% Cremophor EL, 50% absolute ethanol) or 30 μM ALT-59 dissolved in carrier. Streptavidin magnetic beads (20 μl settled beads, GE Healthcare Life Sciences) were added to pull down the DNA-protein complex by rotating at 4° C. for 2 hours. After being washed 5 times with binding buffer, samples were boiled in protein sample buffer. In another experiment, DNA-protein complex bound to Streptavidin magnetic beads were washed and split into three parts, two of which were incubated with either carrier or ALT-59 for 4 hours with rotation at 4° C. to elute TDP-43 from TG₁₂-biotin-streptavidin. The third part and elutes were mixed with protein sample buffer and boiled. Protein samples from the above experiments were loaded onto 4-20% Tris-glycine gel (Invitrogen) for fractionation. Western blotting was performed using anti-TDP-43 antibody (Proteintech Group).

TDP-43 (TARDBP), sequence (Q13148 whole entry, one chain of several): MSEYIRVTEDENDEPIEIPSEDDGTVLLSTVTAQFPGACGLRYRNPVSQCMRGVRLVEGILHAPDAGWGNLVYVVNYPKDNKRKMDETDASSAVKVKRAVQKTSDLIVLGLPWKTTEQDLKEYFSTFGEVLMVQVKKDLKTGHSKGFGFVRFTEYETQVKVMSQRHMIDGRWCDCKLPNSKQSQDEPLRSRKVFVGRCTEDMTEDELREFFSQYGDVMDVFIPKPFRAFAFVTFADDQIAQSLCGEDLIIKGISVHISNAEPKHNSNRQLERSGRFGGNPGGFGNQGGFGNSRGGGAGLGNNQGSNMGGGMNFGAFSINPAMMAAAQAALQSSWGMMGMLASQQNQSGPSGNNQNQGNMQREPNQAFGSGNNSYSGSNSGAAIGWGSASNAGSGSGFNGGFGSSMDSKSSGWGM

Q: Does TGTGTGTGTGTGTGTGTGTGTGTG (ssDNA) [TG12-biotin] bind?
A: binds
